These results are taken from article PMC6393309 (Nucleic Acids Research, 2019).

The subject of test [1] is GB2005 E. coli cells. The test is described as follows: dsDNA recombination assay. Type of test: cell-based. Conditions: % of WT colonies per 10^8 viable cells.
Test [2] relates to GB2005 E. coli cells. Kind of test: ssDNA recombination assay. Type of test: cell-based. Particulars: % of WT colonies per 10^8 viable cells.
The conditions of test [3]: individual CTD mutations; cited from earlier work.
A further test concerns λ Exo. Particulars: Ni-spin pull down; cited from earlier work.

B1: F94A λexo (protein)
chain: MTPDIILQRTGIDVRAVEQGDDAWHKLRLGVITASEVHNVIAKPRSGKKWPDMKMSYFHTLLAEVCTGVAPEVNAKALAWGKQYENDARTLFEATSGVNVTESPIIYRDESMRTACSPDGLCSDGNGLELKCPFTSRDFMKFRLGGFEAIKSAYMAQVQYSMWVTRKNAWYFANYDPRMKREGLHYVVIERDEKYMASFDEIVPEFIEKMDEALAEIGFVFGEQWR
modifications: left off: His6, N-terminal, kept
With B1, the “DS (%): dsDNA recombination compared to WT” value (“DS (%): dsDNA recombination” below) with GB2005 E. coli cells [1] worked out at 1.6%. Further, in the test with GB2005 E. coli cells [2], the “SS (%): ssDNA recombination compared to WT” value (“SS (%): ssDNA recombination” for short) worked out at 183%.

B2: Q252A Redβ: Redβ variant (protein)
chain: MSTALATLAGKLAERVGMDSVDPQELITTLRQTAFKGDASDAQFIALLIVANQYGLNPWTKEIYAFPDKQNGIVPVVGVDGWSRIINENQQFDGMDFEQDNESCTCRIYRKDRNHPICVTEWMDECRREPFKTREGREITGPWQSHPKRMLRHKAMIQCARLAFGFAGIYDKDEAERIVENTAYTAERQPERDITPVNDETMQEINTLLIALDKTWDDDLLPLCSQIFRRDIRASSELTQAEAVKALGFLKAKAAEQKVAA
On to B2, for which the “DS (%): dsDNA recombination” value is recorded as 85% with GB2005 E. coli cells [1] and 55–106% with GB2005 E. coli cells [1] (listed as Q252A). The “SS (%): ssDNA recombination” value in the test with GB2005 E. coli cells [2] is reported as 101%; in the test with GB2005 E. coli cells [2] (listed as Q252A), 13 to 101%. For the same molecule, in test [3], the “dsDNA relative to ssDNA recombination” value is on record as “decreased dsDNA more than ssDNA recombination”.

B3: E256A Redβ: Redβ variant (protein)
chain: MSTALATLAGKLAERVGMDSVDPQELITTLRQTAFKGDASDAQFIALLIVANQYGLNPWTKEIYAFPDKQNGIVPVVGVDGWSRIINENQQFDGMDFEQDNESCTCRIYRKDRNHPICVTEWMDECRREPFKTREGREITGPWQSHPKRMLRHKAMIQCARLAFGFAGIYDKDEAERIVENTAYTAERQPERDITPVNDETMQEINTLLIALDKTWDDDLLPLCSQIFRRDIRASSELTQAEAVKALGFLKQKAAAQKVAA
Turning to B3, the figures for the “DS (%): dsDNA recombination” value with GB2005 E. coli cells [1] and with GB2005 E. coli cells [1] (listed as E256A) were 69% and 55–106%, respectively. For the same molecule, the “SS (%): ssDNA recombination” value is listed as 55% with GB2005 E. coli cells [2] and 13 to 101% in the test with GB2005 E. coli cells [2] (listed as E256A). In test [3], the “dsDNA relative to ssDNA recombination” value is reported as “decreased dsDNA more than ssDNA recombination”.

B4: K132A Redβ: Redβ variant, non-interfacial residue Lys-132 of the NTD, control (protein)
chain: MSTALATLAGKLAERVGMDSVDPQELITTLRQTAFKGDASDAQFIALLIVANQYGLNPWTKEIYAFPDKQNGIVPVVGVDGWSRIINENQQFDGMDFEQDNESCTCRIYRKDRNHPICVTEWMDECRREPFATREGREITGPWQSHPKRMLRHKAMIQCARLAFGFAGIYDKDEAERIVENTAYTAERQPERDITPVNDETMQEINTLLIALDKTWDDDLLPLCSQIFRRDIRASSELTQAEAVKALGFLKQKAAEQKVAA
Consider B4, for which the “DS (%): dsDNA recombination” value in the test with GB2005 E. coli cells [1] turned out to be 19%. Further, the “SS (%): ssDNA recombination” value in the test with GB2005 E. coli cells [2] amounted to 20%.

B5: NTD: N-terminal domain of Redβ, residues 1–177 (protein)
chain: MSTALATLAGKLAERVGMDSVDPQELITTLRQTAFKGDASDAQFIALLIVANQYGLNPWTKEIYAFPDKQNGIVPVVGVDGWSRIINENQQFDGMDFEQDNESCTCRIYRKDRNHPICVTEWMDECRREPFKTREGREITGPWQSHPKRMLRHKAMIQCARLAFGFAGIYDKDEAER
As to B5, the “interaction with λ Exo” value in the test with λ Exo is reported as “no interaction”.
